We go through 2 proteins from patent US20030088057.

In data set [1] the target is T1, AAAASKR.
T1 chain: AAAASKR

For data set [2], the target named is T2, AAKKSAA.
T2 chain: AAKKSAA

For data set [3], the target named is T3, AAKRSAA.
T3 chain: AAKRSAA

Data set [4] addresses T4, AARASAA.
T4 chain: AARASAA

The target of data set [5] is T5, AKAASAA.
T5 chain: AKAASAA

In data set [6] the target is T6, AKRASAA.
T6 chain: AKRASAA

Data set [7] concerns the target T7, AKRASEA.
T7 chain: AKRASEA

Data set [8] deals with T8, AKRASPA.
T8 chain: AKRASPA

The target of data set [9] is T9, AKRESAA.
T9 chain: AKRESAA

The target in data set [10] is T10, AKRKSAA.
T10 chain: AKRKSAA

For data set [11], the target named is T11, AKRPSAA.
T11 chain: AKRPSAA

Data set [12] deals with T12, ARKASAA.
T12 chain: ARKASAA

Data set [13] deals with T13, ARRASAA.
T13 chain: ARRASAA

In data set [14] the target is T14, EKRASAA.
T14 chain: EKRASAA

The target in data set [15] is T15, KKAASAA.
T15 chain: KKAASAA

Data set [16] deals with T16, KKRASAA.
T16 chain: KKRASAA

Data set [17] addresses T17, KKRKSAA.
T17 chain: KKRKSAA

Data set [18] addresses T18, PKRASAA.
T18 chain: PKRASAA

Data set [19] deals with T19, RKKKSAA.
T19 chain: RKKKSAA

Data set [20] concerns the target all peptides.

B1: γ-PAK activated by autophosphorylation in the presence of Cdc42(GTPγS) (protein)
chain: SDNGELEDKPPAPPVRMSSTIFSTGGKDPLSANHSLKPLPSVPEEKKPRNKIISIFSGTEKGSKKKEKERPEISPPSDFEHTIHVGFDAVTGEFTGMPEQWARLLQTSNITKLEQKKNPQAVLDVLKFYDSNTVKQKYLSFTPPEKDGFPSGAPALNTKVSETSAVVTEEDDDDEEAAPPVIAPRPDHTKSIYTRSVIDPIPAPVGDSHVDSGAKSSDKQKKKTKMTDEEIMEKLRTIVSIGDPKKKYTRYEKIGQGASGTVFTATDVALGQEVAIKQINLQKQPKKELIINEILVMKELKNPNIVNFLDSYLVGDELFVVMEYLAGGSLTDVVTETCMDEAQIAAVCRECLQALEFLHANQVIHRDIKSDNVLLGMEGSVKLTDFGFCAQITPEQSKRSTMVGTPYWMAPEVVTRKAYGPKVDIWSLGIMAIEMVEGEPPYLNENPLRALYLIATNGTPELQNPEKLSPIFRDFLNRCLEMDVEKRGSAKELLQHPFLKLAKPLSSLTPLIMAAKEAMKSNR
Regarding B1, the rel rate (%), Cdc42-activated (KKRKSAA = 100) in data set [1] came out at 0%; in data set [2], 0%; in data set [3] it was 0%; in [4] it was 56%; in data set [5] it was 3%; in data set [6], 189%. Besides, the rel rate (%), Cdc42-activated (KKRKSAA = 100) in [7] came out at 88%; in data set [8], 3%; in data set [9] it was 295%; in [10], 158%; in data set [11], 11%; in [12], 9%. The rel rate (%), Cdc42-activated (KKRKSAA = 100) in data set [13] was 134%; in [14], 151%; in [15], 3%; in data set [16], 181%; in data set [17] it was 100%; in [18], 184%. In data set [19], this protein registered a rel rate (%), Cdc42-activated (KKRKSAA = 100) of 3%.

B2: Inactive γ-PAK (protein)
chain: B1 chain
As to B2, the “activity relative to the activated forms” value in data set [20] is <5% of the activity of the activated forms with all peptides.
